This is an account of results in article PMC8834707, “Probing the Dynamics of Streptococcus pyogenes Cas9 Endonuclease Bound to the sgRNA Complex Using Hydrogen-Deuterium Exchange Mass Spectrometry”.

This series concerns the target Cas9 (SpCas9) (Streptococcus pyogenes, UniProt Q99ZW2 1-1368). Briefly: HDX-MS; protein:RNA 1:10 molar ratio; sgRNA without DNA; 9 peptides with reduced and 21 with increased deuterium uptake on binding; HDX buffer, pH and temperature not given in the material (section 3.4 text absent); complex at 1:10 Cas9:sgRNA formed immediately before exchange, D2O incubation 1-480 min. The settings on record: protein: recombinant; tags: His-tag removed with TEV protease; single-strand sgRNA with repeat-antirepeat and stem-loops.

Chain of Cas9 (SpCas9) (Q99ZW2 whole entry): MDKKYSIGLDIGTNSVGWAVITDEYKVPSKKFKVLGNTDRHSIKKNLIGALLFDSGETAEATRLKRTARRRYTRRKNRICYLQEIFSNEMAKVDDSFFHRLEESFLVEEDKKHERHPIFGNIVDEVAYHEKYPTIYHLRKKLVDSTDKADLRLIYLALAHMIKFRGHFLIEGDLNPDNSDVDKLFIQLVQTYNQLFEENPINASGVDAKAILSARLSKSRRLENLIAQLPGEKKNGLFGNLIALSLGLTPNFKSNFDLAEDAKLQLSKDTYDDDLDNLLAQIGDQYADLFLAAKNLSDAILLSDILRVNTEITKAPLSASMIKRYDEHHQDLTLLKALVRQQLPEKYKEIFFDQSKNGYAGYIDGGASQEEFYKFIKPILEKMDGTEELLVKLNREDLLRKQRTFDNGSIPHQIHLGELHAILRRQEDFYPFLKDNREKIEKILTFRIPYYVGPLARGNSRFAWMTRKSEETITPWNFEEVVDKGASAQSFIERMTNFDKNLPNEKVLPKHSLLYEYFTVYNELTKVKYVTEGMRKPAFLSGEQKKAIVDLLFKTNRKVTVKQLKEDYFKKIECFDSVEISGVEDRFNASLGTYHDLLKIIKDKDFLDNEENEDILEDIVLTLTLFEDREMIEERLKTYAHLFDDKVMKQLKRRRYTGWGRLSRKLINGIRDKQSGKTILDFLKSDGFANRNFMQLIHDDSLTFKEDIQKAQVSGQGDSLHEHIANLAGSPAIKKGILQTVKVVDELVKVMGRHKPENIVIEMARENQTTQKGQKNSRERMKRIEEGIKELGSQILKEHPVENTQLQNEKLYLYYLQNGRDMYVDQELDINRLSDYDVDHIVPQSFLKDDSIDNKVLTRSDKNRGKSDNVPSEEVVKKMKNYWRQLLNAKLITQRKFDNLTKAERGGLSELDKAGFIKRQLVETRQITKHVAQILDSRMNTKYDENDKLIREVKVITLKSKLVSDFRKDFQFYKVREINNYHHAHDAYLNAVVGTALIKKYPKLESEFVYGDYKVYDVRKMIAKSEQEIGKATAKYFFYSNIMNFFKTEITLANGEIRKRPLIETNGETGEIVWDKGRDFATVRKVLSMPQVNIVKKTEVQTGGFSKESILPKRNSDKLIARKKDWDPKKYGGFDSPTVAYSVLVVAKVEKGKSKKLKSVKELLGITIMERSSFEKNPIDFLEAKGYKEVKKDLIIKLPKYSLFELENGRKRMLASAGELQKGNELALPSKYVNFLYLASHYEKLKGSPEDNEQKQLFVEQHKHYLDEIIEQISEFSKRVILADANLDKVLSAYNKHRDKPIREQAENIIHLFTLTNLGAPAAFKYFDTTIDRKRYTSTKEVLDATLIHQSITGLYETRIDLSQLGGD

B1: sgRNA (103 nt) (structured_RNA)
RNA: GGUUGGACAUGCUCGACAUUCGUUUUAGAGCUAGAAAUAGCAAGUUAAAAUAAGGCUAGUCCGUUAUCAACUUGAAAAAGUGGCACCGAGUCGGUGCUUUUUU
Take B1: the binding result was “binds”.
